Data from patent publication US20110293511A1 (LUDWIG INSTITUTE FOR CANCER RESEARCH, published 2011).
Ends that are not written are not given here. * marks the point of attachment. Biotin = O=C1N[C@H]2[C@H](CS[C@H]2CCCCC(=O)*)N1

Legend:
[1] = target: T1, anti-idiotype antibody LMH-12; assay: sandwich ELISA: capture on plate-bound LMH-12 (10 µg/ml), detection with biotinylated LMH-12 and avidin-HRP
T1 construct: mouse IgG1 kappa; also called clone 5B8; SB8

[2] = target: T2, de2-7 EGFR unique junctional peptide (human); assay: dot-blot immune stain
T2 construct: non-biotinylated; also called Junction Peptide
T2 peptide: LEEKKGNYVVTDH-OH

[3] = target: T3, biotinylated de2-7 specific peptide (Biotin-LEEKKGNYVVTDH) (human); assay: ELISA, biotinylated peptide on streptavidin plates
T3 construct: also called unique de2-7 EGFR peptide
T3 peptide: Biotin-LEEKKGNYVVTDH

[4] = target: T4, EGFR fragment 1-294, yeast-displayed (human, UniProt P00533 25-318); assay: flow cytometry, indirect immunofluorescence on yeast displaying EGFR fragment 1-294
T4 construct: range 1-294

[5] = target: EGFR fragment 475-621, yeast-displayed (human, UniProt P00533 499-645); assay: flow cytometry on yeast displaying the EGFR fragment, % positive cells
[6] = target: EGFR fragment 1-176, yeast-displayed (human, UniProt P00533 25-200); assay: as above
[7] = target: T5, Peptide C, C-terminal biotinylated de2-7 peptide (human, C-terminal biotin; the reagent list prints it on an added lysine, LEEKKGNYVVTDH(K-Biot)-OH); assay: BIAcore, Peptide C on streptavidin chip
T5 peptide: LEEKKGNYVVTDH

B1: chimeric antibody ch806 (antibody, human IgG1, V domains shown)
VH: DVQLQESGPSLVKPSQSLSLTCTVTGYSITSDFAWNWIRQFPGNKLEWMGYISYSGNTRYNPSLKSRISITRDTSKNQFFLQLNSVTIEDTATYYCVTAGRGFPYWGQGTLVTVSA
VL: DILMTQSPSSMSVSLGDTVSITCHSSQDINSNIGWLQQRPGKSFKGLIYHGTNLDDEVPSRFSGSGSGADYSLTISSLESEDFADYYCVQYAQFPWTFGGGTKLEIKR
notes: also called chAb806
- EC50 (read off the curve) [1]: ~0.6 µg/mL

B2: mAb806 (antibody, V domains shown)
VH: B1 VH
VL: B1 VL
notes: murine IgG2b
- binding result [2]: no binding
- binding result [3]: no binding
- binding result [4]: no binding (tested: 10 µg/ml (single concentration))
- binding result [5]: no binding (tested: 10 µg/ml (single concentration))
- binding result [6]: no binding (tested: 10 µg/ml (single concentration))
- EC50 (read off the curve) [1]: ~0.07 µg/mL
- binding result [7]: no binding (tested: 100 nM)
